From patent US20180155451A1 (published 2018)

T1: FcγRIIb extracellular domain with C-terminal His tag (human, UniProt P31994 43-217)
T1 construct: extracellular domain; also called FcgRIIb; 2b; not shown: His tag at the C terminus
T1 sequence (looked up): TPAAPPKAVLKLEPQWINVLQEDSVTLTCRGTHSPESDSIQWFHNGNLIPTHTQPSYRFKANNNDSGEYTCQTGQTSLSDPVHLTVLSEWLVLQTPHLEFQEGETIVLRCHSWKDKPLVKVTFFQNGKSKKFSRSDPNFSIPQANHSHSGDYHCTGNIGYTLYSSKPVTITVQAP

B1: GpH7-A5/GpH7-B3 variant D265_01G/GpL16-k0 (antibody, human IgG1, kappa)
heavy 1: not shown
heavy 2: not shown
light: DIVMTQSPLSLPVTPGEPASISCQASESLVHSNRNTYLHWYLQKPGQSPQLLIYKVSNRFSGVPDRFSGSGSGTDFTLKISRVEAEDVGVYYCSQNTHVPPTFGQGTKVEIERTVAAPSVFIFPPSDEQLKSGTASVVCLLNNFYPREAKVQWKVDNALQSGNSQESVTEQDSKDSTYSLSSTLTLSKADYEKHKVYACEVTHQGLSSPVTKSFNRGEC
notes: Heterodimerized anti-glypican-3 IgG1; the substitution stands in the GpH7-B3 chain only; also called He Ab
B2: GpH7-A5/GpH7-B3 variant P238_16H/GpL16-k0 (antibody, human IgG1, kappa)
heavy 1: not shown
heavy 2: not shown
light: DIVMTQSPLSLPVTPGEPASISCQASESLVHSNRNTYLHWYLQKPGQSPQLLIYKVSNRFSGVPDRFSGSGSGTDFTLKISRVEAEDVGVYYCSQNTHVPPTFGQGTKVEIERTVAAPSVFIFPPSDEQLKSGTASVVCLLNNFYPREAKVQWKVDNALQSGNSQESVTEQDSKDSTYSLSSTLTLSKADYEKHKVYACEVTHQGLSSPVTKSFNRGEC
notes: as for B1
B3: GpH7-A5/GpH7-B3 variant P238_18N/GpL16-k0 (antibody, human IgG1, kappa)
heavy 1: not shown
heavy 2: not shown
light: DIVMTQSPLSLPVTPGEPASISCQASESLVHSNRNTYLHWYLQKPGQSPQLLIYKVSNRFSGVPDRFSGSGSGTDFTLKISRVEAEDVGVYYCSQNTHVPPTFGQGTKVEIERTVAAPSVFIFPPSDEQLKSGTASVVCLLNNFYPREAKVQWKVDNALQSGNSQESVTEQDSKDSTYSLSSTLTLSKADYEKHKVYACEVTHQGLSSPVTKSFNRGEC
notes: as for B1
B4: GpH7-A5/GpH7-B3 variant P238_20W/GpL16-k0 (antibody, human IgG1, kappa)
heavy 1: not shown
heavy 2: not shown
light: DIVMTQSPLSLPVTPGEPASISCQASESLVHSNRNTYLHWYLQKPGQSPQLLIYKVSNRFSGVPDRFSGSGSGTDFTLKISRVEAEDVGVYYCSQNTHVPPTFGQGTKVEIERTVAAPSVFIFPPSDEQLKSGTASVVCLLNNFYPREAKVQWKVDNALQSGNSQESVTEQDSKDSTYSLSSTLTLSKADYEKHKVYACEVTHQGLSSPVTKSFNRGEC
notes: as for B1
B5: GpH7-A5/GpH7-B3 variant S239_03V/GpL16-k0 (antibody, human IgG1, kappa)
heavy 1: not shown
heavy 2: not shown
light: DIVMTQSPLSLPVTPGEPASISCQASESLVHSNRNTYLHWYLQKPGQSPQLLIYKVSNRFSGVPDRFSGSGSGTDFTLKISRVEAEDVGVYYCSQNTHVPPTFGQGTKVEIERTVAAPSVFIFPPSDEQLKSGTASVVCLLNNFYPREAKVQWKVDNALQSGNSQESVTEQDSKDSTYSLSSTLTLSKADYEKHKVYACEVTHQGLSSPVTKSFNRGEC
notes: as for B1
B6: GpH7-A5/GpH7-B3 variant S239_04F/GpL16-k0 (antibody, human IgG1, kappa)
heavy 1: not shown
heavy 2: not shown
light: DIVMTQSPLSLPVTPGEPASISCQASESLVHSNRNTYLHWYLQKPGQSPQLLIYKVSNRFSGVPDRFSGSGSGTDFTLKISRVEAEDVGVYYCSQNTHVPPTFGQGTKVEIERTVAAPSVFIFPPSDEQLKSGTASVVCLLNNFYPREAKVQWKVDNALQSGNSQESVTEQDSKDSTYSLSSTLTLSKADYEKHKVYACEVTHQGLSSPVTKSFNRGEC
notes: as for B1
B7: GpH7-A5/GpH7-B3 variant P238_19Q/GpL16-k0 (antibody, human IgG1, kappa)
heavy 1: not shown
heavy 2: not shown
light: DIVMTQSPLSLPVTPGEPASISCQASESLVHSNRNTYLHWYLQKPGQSPQLLIYKVSNRFSGVPDRFSGSGSGTDFTLKISRVEAEDVGVYYCSQNTHVPPTFGQGTKVEIERTVAAPSVFIFPPSDEQLKSGTASVVCLLNNFYPREAKVQWKVDNALQSGNSQESVTEQDSKDSTYSLSSTLTLSKADYEKHKVYACEVTHQGLSSPVTKSFNRGEC
notes: as for B1
B8: GpH7-A5/GpH7-B3 variant S239_05P/GpL16-k0 (antibody, human IgG1, kappa)
heavy 1: not shown
heavy 2: not shown
light: DIVMTQSPLSLPVTPGEPASISCQASESLVHSNRNTYLHWYLQKPGQSPQLLIYKVSNRFSGVPDRFSGSGSGTDFTLKISRVEAEDVGVYYCSQNTHVPPTFGQGTKVEIERTVAAPSVFIFPPSDEQLKSGTASVVCLLNNFYPREAKVQWKVDNALQSGNSQESVTEQDSKDSTYSLSSTLTLSKADYEKHKVYACEVTHQGLSSPVTKSFNRGEC
notes: as for B1

Experiments:
[1] = molecular target: T2, FcγRIIIa extracellular domain with C-terminal His tag (human, UniProt P08637 17-208); assay: SPR (Biacore), antibody captured on antigen peptide chip, FcγR as analyte; relative binding amount
T2 construct: extracellular domain; also called FcgRIIIa; 3a; not shown: His tag at the C terminus
T2 sequence (P08637 17-208): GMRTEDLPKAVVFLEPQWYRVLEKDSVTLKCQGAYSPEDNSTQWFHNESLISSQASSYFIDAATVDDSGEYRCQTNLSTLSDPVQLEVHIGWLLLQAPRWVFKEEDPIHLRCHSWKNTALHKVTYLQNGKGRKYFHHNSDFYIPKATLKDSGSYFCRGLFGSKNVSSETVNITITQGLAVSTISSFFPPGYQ
Protocol: (§1) Analysis of interaction between objective antibody and the FcγR was carried out using Biacore T100 (GE Healthcare). HBS-EP+ (GE Healthcare) was used as the running buffer, and the measurement temperature was set to 25° C. Chips produced by immobilizing the antigen peptide by the amine coupling method to a Series S Sencor Chip CM5 (GE Healthcare), or alternatively, chips produced by allowing preliminarily biotinylated antigen peptides to interact with and immobilize onto a Series S Sensor Chip SA (certified) (GE Healthcare) were used. Antibodies of interest were captured onto an antigen peptide-immobilized chip, and allowed to interact to each FcγR diluted with running buffer. To regenerate and repeatedly use the chip, the antibodies captured on the chip were washed off by reacting 10 mM glycine-HCl, pH 1.5.
(§2) The FcγR-binding activity of each antibody was assessed primarily using as an indicator the FcγR-binding activity and dissociation constant for FcγR.

[2] = molecular target: T1, FcγRIIb extracellular domain with …; assay: as above
Protocol: as §1, §2

[3] = molecular target: T2, FcγRIIIa extracellular domain with …; assay: SPR; He/Con_3a divided by He/Con_2b (binding to FcγRIIb is the reference)
Protocol: as §1, §2

Binder	He/Con_3a [1]	He/Con_2b [2]	He_3a/2b (IIIa/IIb) [3] [ratio]
B1	4.5 % of GpH7-A5/GpH7-B3/GpL16-k0 (=100)	16.1 % of GpH7-A5/GpH7-B3/GpL16-k0 (=100)	0.28
B2	30.7 % of GpH7-A5/GpH7-B3/GpL16-k0 (=100)	115 % of GpH7-A5/GpH7-B3/GpL16-k0 (=100)	0.27
B3	40.4 % of GpH7-A5/GpH7-B3/GpL16-k0 (=100)	73.2 % of GpH7-A5/GpH7-B3/GpL16-k0 (=100)	0.55
B4	49.7 % of GpH7-A5/GpH7-B3/GpL16-k0 (=100)	123 % of GpH7-A5/GpH7-B3/GpL16-k0 (=100)	0.4
B5	76.6 % of GpH7-A5/GpH7-B3/GpL16-k0 (=100)	108 % of GpH7-A5/GpH7-B3/GpL16-k0 (=100)	0.71
B6	25.3 % of GpH7-A5/GpH7-B3/GpL16-k0 (=100)	44.1 % of GpH7-A5/GpH7-B3/GpL16-k0 (=100)	0.57
B7	55.8 % of GpH7-A5/GpH7-B3/GpL16-k0 (=100)	110 % of GpH7-A5/GpH7-B3/GpL16-k0 (=100)	0.51
B8	14.9 % of GpH7-A5/GpH7-B3/GpL16-k0 (=100)	102 % of GpH7-A5/GpH7-B3/GpL16-k0 (=100)	0.15
